Measured values: patent US20230390362A1, “USE OF TRIGONAL AGONIST HAVING ACTIVITIES TO ALL OF GLUCAGON, GLP-1, AND GIP RECEPTORS IN TREATMENT OF SEQUELAE FOLLOWING RESPIRATORY INFECTIOUS DISEASES” (HANMI PHARM. CO., LTD., priority 2020, published 2023)
Positions of bridges follow the written chain, without caps; N, C: chain ends. Non-standard residues stand in square brackets, D forms with d. No end group written: not given here. *: point of attachment. Acetyl(2-(4-imidazolyl)) = O=C(Cc1c[nH]cn1)*; Aib = CC(C)(N)C(=O)O

T1: human GIP receptor (human, UniProt P48546 22-466)
T1 sequence (looked up): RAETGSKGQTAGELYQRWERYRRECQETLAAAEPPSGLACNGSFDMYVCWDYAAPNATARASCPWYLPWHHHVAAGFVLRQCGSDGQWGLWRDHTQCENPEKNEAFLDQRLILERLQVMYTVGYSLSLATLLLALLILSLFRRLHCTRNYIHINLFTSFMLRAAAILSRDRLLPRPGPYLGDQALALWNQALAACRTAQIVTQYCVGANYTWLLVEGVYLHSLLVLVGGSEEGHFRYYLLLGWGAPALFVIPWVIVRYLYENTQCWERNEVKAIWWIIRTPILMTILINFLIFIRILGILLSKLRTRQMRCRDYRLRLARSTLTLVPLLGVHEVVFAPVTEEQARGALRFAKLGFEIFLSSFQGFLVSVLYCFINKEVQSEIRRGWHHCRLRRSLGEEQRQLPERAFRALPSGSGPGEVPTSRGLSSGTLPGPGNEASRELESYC


Assays:
Assay in all cases: cell-based or functional assay
[1] = target: human GCG receptor (human, UniProt P47871 26-477)
Sequence of human GCG receptor (P47871 26-477): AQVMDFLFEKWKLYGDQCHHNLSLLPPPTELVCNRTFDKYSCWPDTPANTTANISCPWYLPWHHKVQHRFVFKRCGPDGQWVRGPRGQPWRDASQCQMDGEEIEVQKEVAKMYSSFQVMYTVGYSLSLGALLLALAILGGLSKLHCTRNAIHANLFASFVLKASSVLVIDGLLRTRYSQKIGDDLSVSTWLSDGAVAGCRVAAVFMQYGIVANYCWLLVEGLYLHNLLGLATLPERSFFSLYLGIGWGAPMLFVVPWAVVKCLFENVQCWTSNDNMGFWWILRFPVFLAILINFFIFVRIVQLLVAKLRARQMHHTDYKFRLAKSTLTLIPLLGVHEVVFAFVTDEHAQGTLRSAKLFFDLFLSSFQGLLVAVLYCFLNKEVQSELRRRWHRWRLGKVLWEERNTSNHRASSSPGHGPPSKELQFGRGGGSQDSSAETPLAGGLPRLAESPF

[2] = target: T1, human GIP receptor
[3] = target: human GLP-1 receptor (human, UniProt P43220 24-463)

Row | Binder | In vitro activity relative to native peptide (%), vs. Glucagon (cAMP EC50) [1] | In vitro activity relative to native peptide (%), vs. GIP (cAMP EC50) [2] | In vitro activity relative to native peptide (%), vs. GLP-1 (cAMP EC50) [3]
1 | {Acetyl(2-(4-imidazolyl))}-[Aib]QGTFTSDYSIAMDEIACKDFVNWLLNTK (bridge 15-19) [trigonal agonist of SEQ ID NO: 61] | < 0.1% | 2.8% | 59.8%
2 | H[Aib]QGTFTSDYSKCLDEKRAKEFVQWLLDHHPSSGQPPPS (bridge 16-20) [trigonal agonist of SEQ ID NO: 65] | 25.2% | 11.6% | 95.4%
3 | H[Aib]QGTFTSDYSIAMDEIHQKDFVNWLLNTC (bridge 16-20) [trigonal agonist of SEQ ID NO: 57] | < 0.1% | 0.3% | 11.7%
4 | {Acetyl(2-(4-imidazolyl))}-[Aib]QGTFTSDYSICMDEKHQKDFVNWLLNTK (bridge 15-19) [trigonal agonist of SEQ ID NO: 59] | < 0.1% | 4% | 40.3%
5 | H[Aib]QGTFTSDYSKYLDEKRQKEFVQWLLNTKC (bridge 16-20) [trigonal agonist of SEQ ID NO: 58] | 2.6% | 0.2% | 39.1%
6 | Y[Aib]QGTFTSDYSKYLDECAAKEFVQWLLDHHPSSGQPPPS (bridge 16-20) [trigonal agonist of SEQ ID NO: 64] | 60.1% | 92.9% | 64.6%
7 | H[Aib]QGTFTSDYSKYLDEKRQKEFVNWLLAQC (bridge 16-20) [trigonal agonist of SEQ ID NO: 56] | 4.9% | 0.8% | 57.9%
8 | H[Aib]QGTFTSDVSKYLDGQAAKEFVAWLLKGC [trigonal agonist of SEQ ID NO: 7] | < 0.1% | < 0.1% | 13.7%
9 | {Acetyl(2-(4-imidazolyl))}-[Aib]QGTFTSDCSKYLDERAAQDFVQWLLDGGPSSGAPPPS [trigonal agonist of SEQ ID NO: 63] | < 0.1% | < 0.1% | 15.3%
10 | {Acetyl(2-(4-imidazolyl))}-[Aib]QGTFTSDYSIAMDEKHCKDFVNWLLNTK (bridge 15-19) [trigonal agonist of SEQ ID NO: 60] | < 0.1% | 8.2% | 106%
11 | {Acetyl(2-(4-imidazolyl))}-[Aib]QGTFTSDKSKYLDERAAQDFVQWLLDGGPSSGAPPPS [trigonal agonist of SEQ ID NO: 62] | < 0.1% | < 0.1% | 5.2%
